# Measurements from paper PMC3706368.
# Target: V5-tagged cdN protein (human) (UniProt Q8TCD5)
# Sequence of UniProt Q8TCD5 (Q8TCD5 whole entry): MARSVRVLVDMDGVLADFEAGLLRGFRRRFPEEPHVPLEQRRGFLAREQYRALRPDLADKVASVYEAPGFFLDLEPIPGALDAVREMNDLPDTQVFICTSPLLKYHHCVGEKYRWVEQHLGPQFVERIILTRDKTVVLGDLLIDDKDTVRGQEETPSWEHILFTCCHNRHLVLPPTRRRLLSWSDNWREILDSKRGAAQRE
substance,measurement,value
myc-tagged full-length NS3/4A protein (natural protein),"5'(3')-deoxyribonucleotidase activity (dephosphorylation of dUMP) in lysates of HuH7 cells with stable HCV NS3/4A expression, compared with cells with stable EGFP expression",70%
